In paper doi:10.1101/2022.06.02.494603 (bioRxiv, 2022):

Biological target: optineurin, C-terminal myc-FLAG-tagged (UniProt Q96CV9 1-577)
Experiment: co-IP

optineurin, C-terminal myc-FLAG-tagged, sequence (Q96CV9 whole entry): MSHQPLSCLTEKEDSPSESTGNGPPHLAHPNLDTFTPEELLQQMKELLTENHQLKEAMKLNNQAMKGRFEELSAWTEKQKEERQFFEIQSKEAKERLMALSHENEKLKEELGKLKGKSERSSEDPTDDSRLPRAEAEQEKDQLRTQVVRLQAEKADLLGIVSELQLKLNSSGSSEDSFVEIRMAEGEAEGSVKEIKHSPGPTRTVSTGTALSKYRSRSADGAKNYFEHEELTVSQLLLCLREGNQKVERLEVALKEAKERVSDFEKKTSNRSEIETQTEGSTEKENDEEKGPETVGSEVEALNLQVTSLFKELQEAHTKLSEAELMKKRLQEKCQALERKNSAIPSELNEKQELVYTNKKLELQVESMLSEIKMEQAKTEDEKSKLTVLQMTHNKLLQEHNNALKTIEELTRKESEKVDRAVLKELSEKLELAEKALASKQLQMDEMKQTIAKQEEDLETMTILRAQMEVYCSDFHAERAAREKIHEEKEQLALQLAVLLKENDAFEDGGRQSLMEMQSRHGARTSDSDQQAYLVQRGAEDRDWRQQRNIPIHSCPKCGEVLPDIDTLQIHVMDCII

B1: TBK1 T4A, untagged (natural protein, human, UniProt Q9UHD2 1-729, looked up)
chain: MQSASNHLWLLSDILGQGATANVFRGRHKKTGDLFAIKVFNNISFLRPVDVQMREFEVLKKLNHKNIVKLFAIEEETTTRHKVLIMEFCPCGSLYTVLEEPSNAYGLPESEFLIVLRDVVGGMNHLRENGIVHRDIKPGNIMRVIGEDGQSVYKLTDFGAARELEDDEQFVSLYGTEEYLHPDMYERAVLRKDHQKKYGATVDLWSIGVTFYHAATGSLPFRPFEGPRRNKEVMYKIITGKPSGAISGVQKAENGPIDWSGDMPVSCSLSRGLQVLLTPVLANILEADQEKCWGFDQFFAETSDILHRMVIHVFSLQQMTAHKIYIHSYNTATIFHELVYKQTKIISSNQELIYEGRRLVLEPGRLAQHFPKTTEENPIFVVSREPLNTIGLIYEKISLPKVHPRYDLDGDASMAKAITGVVCYACRIASTLLLYQELMRKGIRWLIELIKDDYNETVHKKTEVVITLDFCIRNIEKTVKVYEKLMKINLEAAELGEISDIHTKLLRLSSSQGTIETSLQDIDSRLSPGGSLADAWAHQEGTHPKDRNVEKLQVLLNCMTEIYYQFKKDKAERRLAYNEEQIHKFDKQKLYYHATKAMTHFTDECVKKYEAFLNKSEEWIRKMLHLRKQLLSLTNQCFDIEEEVSKYQEYTNELQETLPQKMFTASSGIKHTMTPIYPSSNTLVEMTLGMKKLKEEMEGVVKELAENNHILERFGSLTMDGGLRNVDCL
  TBK1 bound to OPTN relative to wild type: 1.93 relative to TBK1 WT
